Data from patent US20060257366A1.

Target: CH-296 retronectin fragment (UniProt P02751)
Assay: cell-based or functional assay

Chain of UniProt P02751 (P02751 1361-2107): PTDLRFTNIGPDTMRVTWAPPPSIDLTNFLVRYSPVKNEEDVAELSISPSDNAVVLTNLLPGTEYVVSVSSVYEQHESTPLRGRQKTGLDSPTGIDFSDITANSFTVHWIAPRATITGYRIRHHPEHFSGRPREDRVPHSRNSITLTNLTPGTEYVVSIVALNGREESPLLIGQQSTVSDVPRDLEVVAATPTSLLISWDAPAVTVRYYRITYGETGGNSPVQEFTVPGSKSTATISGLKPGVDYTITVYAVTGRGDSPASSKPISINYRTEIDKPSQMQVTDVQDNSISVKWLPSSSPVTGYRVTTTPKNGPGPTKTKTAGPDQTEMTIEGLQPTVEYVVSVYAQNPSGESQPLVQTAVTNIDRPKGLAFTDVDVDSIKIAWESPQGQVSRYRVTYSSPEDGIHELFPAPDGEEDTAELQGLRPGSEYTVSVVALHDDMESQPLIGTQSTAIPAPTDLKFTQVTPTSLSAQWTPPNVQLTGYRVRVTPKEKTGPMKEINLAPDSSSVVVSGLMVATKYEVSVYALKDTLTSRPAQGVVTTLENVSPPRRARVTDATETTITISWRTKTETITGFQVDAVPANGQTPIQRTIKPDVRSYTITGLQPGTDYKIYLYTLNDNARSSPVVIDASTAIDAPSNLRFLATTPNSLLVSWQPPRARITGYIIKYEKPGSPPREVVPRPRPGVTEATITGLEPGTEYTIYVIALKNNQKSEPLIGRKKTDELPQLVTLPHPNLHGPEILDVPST

RD114/TR chimeric glycoprotein
transduction efficiency of human CD34+ cells on retronectin-coated plates (% GFP+ cells): 10 fold
